According to article PMC5826061:

What follows are sequences tested against T1, GlnR (Streptomyces coelicolor) (UniProt Q05943) (assay: DNase I footprinting). Settings: 50 mM Tris-HCl pH 8.0, 100 mM KCl, 2.5 mM MgCl2, 1 mM DTT, 10% glycerol; EMSA in 20 ul with 100 ng/ul sheared salmon sperm DNA, room temperature, 20 min ….
T1 sequence: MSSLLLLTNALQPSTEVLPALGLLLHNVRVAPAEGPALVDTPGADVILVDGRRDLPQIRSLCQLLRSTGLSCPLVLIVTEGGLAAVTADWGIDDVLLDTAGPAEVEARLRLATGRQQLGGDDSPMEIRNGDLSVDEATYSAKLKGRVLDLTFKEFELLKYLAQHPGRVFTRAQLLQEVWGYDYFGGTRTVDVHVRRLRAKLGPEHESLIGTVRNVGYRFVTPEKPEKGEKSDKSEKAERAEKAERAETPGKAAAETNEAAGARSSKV

binding, binds:
GTAAAACGACGGCCAGTCCATGCCAGGTCATTCGGAGGCCGCCGCGGCCGGCTTGCGTTCCGGGCCGGACGGCCCGGGCACGACGACGACCGGCCCCGGCCGTTCACCCACGCGTAACACGCACCGTGCCTTCGTCACGGCGGCGAAACAACGAGGGGCTTCCACCGAAACCGCGCTGCGTCAATGTCGTGGCGCATAACCGGCCCACCCCTCACCGCCCGCCCGCCAGGCTTCGCCCCCACGGGGCCGCACCAACGACGAGGAGACGCCGATGTCTAGATTTTT (double strand) [amtB promoter WT footprint probe]
GTAAAACGACGGCCAGTCCATGCCAGGTCATTCGGAGGCCGCCGCGGCCGGCTTGCGTTCCGGGCCGGACGGCCCGGGCACGACGACGACCGGCCCCGGCCGTTCACCCACGCGTAACACGCAGGGGCTTCCACCGAAACCGCGCTGCGTCAATGTCGTGGCGCATAACCGGCCCACCCCTCACCGCCCGCCCGCCAGGCTTCGCCCCCACGGGGCCGCACCAACGACGAGGAGACGCCGATGTCTAGATTTTT (double strand) [amtB promoter m3 footprint probe]
GTAAAACGACGGCCAGTCCATGCCAGGTCATTCGGAGGCCGCCGCGGCCGGCTTGCGTTCCGGGCCGGACGGCCCGGGCACGACGACGACCGGCCCCGGCCGTTCACCCACGCGTAACACGCACCGTGCCTTCGTCACGGCGGCGAAACAACGAGAAATCTCCACCGAAACCGCGCTGCGTCAATGTCGTGGCGCATAACCGGCCCACCCCTCACCGCCCGCCCGCCAGGCTTCGCCCCCACGGGGCCGCACCAACGACGAGGAGACGCCGATGTCTAGATTTTT (double strand) [amtB promoter a2m footprint probe]
